From doi:10.1101/156513 (bioRxiv, 2017)

B1: GFP-tagged C-terminal ZO-1 fragment (GFP-ZO-1-1619-1748) (domain or fragment)
chain: SAVEEDEDEDGHTVVATARGIFNSNGGVLSSIETGVSIIIPQGAIPEGVEQEIYFKVCRDNSILPPLDKEKGETLLSPLVMCGPHGLKFLKPVELRLPHCDPKTWQNKCLPGDPNYLVGANCVSVLIDHF
B2: HA-DbpA (natural protein)
chain: not shown

Biological target: T1, GST-ZPSG-1 (UniProt Q07157 417-806)
T1 sequence: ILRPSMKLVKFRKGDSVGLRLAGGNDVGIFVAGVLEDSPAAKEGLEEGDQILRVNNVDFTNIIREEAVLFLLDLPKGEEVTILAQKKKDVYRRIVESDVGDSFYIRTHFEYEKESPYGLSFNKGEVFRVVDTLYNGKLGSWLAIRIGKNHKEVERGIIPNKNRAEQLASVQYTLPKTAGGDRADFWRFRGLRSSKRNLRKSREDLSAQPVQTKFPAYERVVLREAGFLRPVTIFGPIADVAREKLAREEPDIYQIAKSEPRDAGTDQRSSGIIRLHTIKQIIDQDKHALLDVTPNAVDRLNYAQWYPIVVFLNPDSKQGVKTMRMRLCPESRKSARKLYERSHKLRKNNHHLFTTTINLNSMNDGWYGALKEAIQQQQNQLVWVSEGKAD
Test: supernatant depletion assay

| Binder | Kd [nM] |
| --- | --- |
| B1 | 66 |
| B2 | 100 |
